Measured values reported in patent publication US20130019345A1 (NATIONAL UNIVERSITY CORPORATION NARA INSTITUTE OF SCIENCE …, published 2013).
Where no end group is shown, it is not given here. [ ]: non-standard residue; d: D form. pS = N[C@@H](COP(=O)(O)O)C(=O)O

Assays:
[1] = target: 14-3-3 protein (endogenous rice OsGF14; isoform not specified); assay: cell-based or functional assay
[2] = target: T1, OsGF14b (Os04g0462500), full-length, yeast two-hybrid fusion (rice, UniProt Q7XTE8 1-262); assay: yeast two-hybrid, growth on selective medium
T1 construct: not shown: two-hybrid fusion partner encoded by pBTM116-GW or pVP16-GW
T1 sequence: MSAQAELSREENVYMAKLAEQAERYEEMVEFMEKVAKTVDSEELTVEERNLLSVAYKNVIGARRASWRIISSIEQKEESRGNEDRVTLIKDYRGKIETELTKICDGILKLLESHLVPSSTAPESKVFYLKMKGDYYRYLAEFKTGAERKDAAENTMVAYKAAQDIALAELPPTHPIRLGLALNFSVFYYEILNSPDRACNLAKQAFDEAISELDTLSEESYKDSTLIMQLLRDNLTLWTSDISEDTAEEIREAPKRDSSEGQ
Procedure: (§1) For an interaction assay, pBTM116 and pVP16 were converted to pBTM116-GW and pVP16-GW, respectively, using a Gateway vector conversion system (Invitrogen) according to the manufacturer's instructions. Yeast cells were grown at 30° C. for 5 days using an SC medium (without uracil, tryptophan, leucine, and histidine), the medium containing added histidine or 1 to 10 mM 3-aminotriazole (+His or +3-AT). The concentration of 3-AT was determined by a bait-prey combination.
(§2) Various mutant proteins were produced by constructing plasmids as described below. […] The PCR-amplified fragments were cloned into a pENTR/D-TOPO cloning vector (Invitrogen) to obtain entry clones.

[3] = target: T2, OsGF14b mutant F206A, yeast two-hybrid fusion (rice, UniProt Q7XTE8 1-262); assay: yeast two-hybrid, growth on selective medium
T2 construct: not shown: yeast two-hybrid fusion partner encoded by pBTM116-GW or pVP16-GW, and its linker
T2 sequence: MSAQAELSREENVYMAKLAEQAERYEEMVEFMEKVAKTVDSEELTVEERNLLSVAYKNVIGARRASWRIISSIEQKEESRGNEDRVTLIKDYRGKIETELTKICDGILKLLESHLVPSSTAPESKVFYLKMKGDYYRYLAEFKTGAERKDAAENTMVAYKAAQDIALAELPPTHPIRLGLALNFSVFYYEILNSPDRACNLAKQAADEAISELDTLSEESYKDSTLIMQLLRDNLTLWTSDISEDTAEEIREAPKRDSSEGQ
Procedure: as §1, §2

[4] = target: T3, OsGF14b mutant I210A, yeast two-hybrid fusion (rice, UniProt Q7XTE8 1-262); assay: yeast two-hybrid, growth on selective medium
T3 construct: not shown: yeast two-hybrid fusion partner encoded by pBTM116-GW or pVP16-GW, and its linker
T3 sequence: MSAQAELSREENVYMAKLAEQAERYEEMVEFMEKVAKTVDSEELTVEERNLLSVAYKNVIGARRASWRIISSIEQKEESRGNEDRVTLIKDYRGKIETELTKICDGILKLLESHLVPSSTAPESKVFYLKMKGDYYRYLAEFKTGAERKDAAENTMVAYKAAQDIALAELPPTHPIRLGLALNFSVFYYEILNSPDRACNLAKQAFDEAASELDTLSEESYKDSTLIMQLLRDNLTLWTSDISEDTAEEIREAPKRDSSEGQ
Procedure: as §1, §2

[5] = target: T4, OsGF14b mutant E218A, yeast two-hybrid fusion (rice, UniProt Q7XTE8 1-262); assay: yeast two-hybrid, growth on selective medium
T4 construct: not shown: yeast two-hybrid fusion partner encoded by pBTM116-GW or pVP16-GW, and its linker
T4 sequence: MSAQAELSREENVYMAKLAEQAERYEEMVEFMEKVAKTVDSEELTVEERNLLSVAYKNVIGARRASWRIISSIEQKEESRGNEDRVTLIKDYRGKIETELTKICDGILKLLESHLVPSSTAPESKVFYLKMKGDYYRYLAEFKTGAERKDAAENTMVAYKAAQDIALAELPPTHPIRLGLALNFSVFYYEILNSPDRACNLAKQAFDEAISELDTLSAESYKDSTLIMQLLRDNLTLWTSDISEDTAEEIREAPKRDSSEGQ
Procedure: as §1, §2

[6] = target: T5, OsGF14b mutant Y221A, yeast two-hybrid fusion (rice, UniProt Q7XTE8 1-262); assay: yeast two-hybrid, growth on selective medium
T5 construct: not shown: two-hybrid fusion partner encoded by pBTM116-GW or pVP16-GW
T5 sequence: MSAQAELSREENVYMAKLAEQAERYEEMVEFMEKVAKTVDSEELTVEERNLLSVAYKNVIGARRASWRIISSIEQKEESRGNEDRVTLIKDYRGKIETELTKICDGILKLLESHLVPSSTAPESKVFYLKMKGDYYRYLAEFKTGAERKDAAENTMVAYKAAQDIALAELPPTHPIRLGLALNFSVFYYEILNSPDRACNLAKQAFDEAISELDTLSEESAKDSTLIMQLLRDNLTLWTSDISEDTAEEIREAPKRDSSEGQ
Procedure: as §1, §2

[7] = target: T6, OsGF14b mutant R232A, yeast two-hybrid fusion (rice, UniProt Q7XTE8 1-262); assay: yeast two-hybrid, growth on selective medium
T6 construct: not shown: two-hybrid fusion partner encoded by pBTM116-GW or pVP16-GW
T6 sequence: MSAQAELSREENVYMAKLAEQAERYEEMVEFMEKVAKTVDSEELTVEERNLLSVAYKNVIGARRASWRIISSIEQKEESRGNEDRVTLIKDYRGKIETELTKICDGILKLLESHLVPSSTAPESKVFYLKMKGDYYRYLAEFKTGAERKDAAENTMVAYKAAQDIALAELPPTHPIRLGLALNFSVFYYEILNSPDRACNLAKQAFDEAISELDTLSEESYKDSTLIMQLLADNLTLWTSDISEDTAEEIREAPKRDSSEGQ
Procedure: as §1, §2

[8] = target: T7, OsGF14b mutant D233A, yeast two-hybrid fusion (rice, UniProt Q7XTE8 1-262); assay: yeast two-hybrid, growth on selective medium
T7 construct: not shown: two-hybrid fusion partner encoded by pBTM116-GW or pVP16-GW
T7 sequence: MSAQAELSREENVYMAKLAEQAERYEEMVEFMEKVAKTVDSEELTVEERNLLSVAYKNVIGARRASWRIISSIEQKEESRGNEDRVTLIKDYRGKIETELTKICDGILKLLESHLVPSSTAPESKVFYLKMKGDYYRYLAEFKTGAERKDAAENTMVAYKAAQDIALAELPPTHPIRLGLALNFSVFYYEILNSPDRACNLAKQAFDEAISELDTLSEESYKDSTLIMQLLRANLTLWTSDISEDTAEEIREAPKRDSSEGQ
Procedure: as §1, §2

[9] = target: T8, GF14b, full-length, Vn- or Vc-tagged (BiFC) (rice, UniProt Q7XTE8 1-262); assay: BiFC (Venus) in rice Oc protoplasts
T8 construct: it is put first only for listing; also called OsGF14b; not shown: Vn or Vc fragment of Venus (BiFC tag), at the N- or C-terminal
T8 sequence: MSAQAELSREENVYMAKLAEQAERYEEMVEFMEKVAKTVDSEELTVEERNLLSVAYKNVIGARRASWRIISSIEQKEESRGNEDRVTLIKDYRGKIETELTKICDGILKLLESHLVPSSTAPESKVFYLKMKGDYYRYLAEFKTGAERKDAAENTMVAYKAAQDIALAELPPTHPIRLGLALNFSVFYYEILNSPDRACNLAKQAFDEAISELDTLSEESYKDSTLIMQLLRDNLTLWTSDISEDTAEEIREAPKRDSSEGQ
Procedure: (§3) (1) The transformation of rice Oc protoplasts was performed by a method described in Kyozuka and Shimamoto 1991, Plant J. 6, 271 (1994), Non Patent Literature 1, or the like. Fluorescent protein expression vectors having introduced therein various proteins were introduced into a protoplast suspension (2×10⁷ protoplasts/ml) by a PEG method (PEG-mediated method). After incubation at 30° C. for 24 hours, transformed protoplasts were obtained and used for microscopic observation.
(§4) Therefore, the number of cells showing higher values than the above-mentioned values was scored.

[10] = target: T9, Hd3a, full-length, Vn- or Vc-tagged (BiFC) (rice, UniProt Q93WI9 1-179); assay: BiFC (Venus) in rice Oc protoplasts (endogenous 14-3-3 proteins present)
T9 construct: it is put first only for listing; not shown: Vn or Vc fragment of Venus (BiFC tag), at the N- or C-terminal
T9 sequence (Q93WI9 whole entry, the tested form may be a part): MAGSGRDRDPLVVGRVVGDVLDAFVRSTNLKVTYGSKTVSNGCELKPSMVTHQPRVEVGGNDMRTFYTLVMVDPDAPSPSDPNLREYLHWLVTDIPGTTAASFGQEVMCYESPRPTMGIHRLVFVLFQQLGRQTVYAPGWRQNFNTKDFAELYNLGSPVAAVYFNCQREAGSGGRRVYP
Procedure: as §3, §4

[11] = target: T10, GF14c residues 1 to 235 (crystallization construct) (rice, UniProt Q6ZKC0 1-235); assay: X-ray crystal structure of the florigen activation complex; peptide soaked into Hd3a-GF14c crystals
T10 construct: Expressed in E. coli and purified; co-crystallized with Hd3a 6-170; also called 14-3-3 protein
T10 sequence: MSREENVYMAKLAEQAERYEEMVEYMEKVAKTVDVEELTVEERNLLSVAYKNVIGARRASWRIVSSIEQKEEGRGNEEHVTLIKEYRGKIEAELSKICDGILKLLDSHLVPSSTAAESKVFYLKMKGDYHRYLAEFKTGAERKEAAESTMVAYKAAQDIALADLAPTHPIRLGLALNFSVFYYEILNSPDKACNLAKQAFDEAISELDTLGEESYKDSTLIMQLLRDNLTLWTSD
Procedure: The crystallization of the complex was performed at 4° C. by a sitting drop method using a mixture of 1 μl of the protein solution (protein concentration: 10 mg/mL) and 1 μl of a precipitant solution (0.1 M HEPES (pH 7.5), 0.2 M ammonium sulfate, and 25% PEG 3350).

[12] = target: T11, GST-fused Hd3a protein (full-length Hd3a) (rice, UniProt Q93WI9 1-179); assay: in vitro GST pull-down, GST-Hd3a on glutathione resin, SDS-PAGE
T11 construct: also called GST-Hd3a; not shown: GST (glutathione S-transferase) fusion partner
T11 sequence (Q93WI9 whole entry, the tested form may be a part): as the sequence (Q93WI9 whole entry, the tested form may be a part) above
Procedure: After that, the resin was washed with a phosphate buffer (pH 6.8) containing 50 mM KCl and 1 mM DTT to remove a free GST-fused protein unbound to the resin. The isolated and purified GST protein bound to the resin was used as a negative control. […] After that, the resins were washed with a phosphate buffer (pH 6.8) containing 50 mM KCl and 1 mM DTT to remove a free GST-GF14c polypeptide unbound to the resins. Each of the bound proteins was eluted with a phosphate buffer (pH 6.8) containing 50 mM glutathione, 50 mM KCl, and 1 mM DTT and confirmed by SDS polyacrylamide electrophoresis.

In the case of “Hd3a-GFP-fused protein (full-length Hd3a coding region conjugated to GFP) (from UniProt Q93WI9 1-179)”, the Days to flowering (days) of transgenic rice [1] is reported as 19.6 days.

“Hd3a(R64G/R132A)-GFP (prolC::Hd3a(R64G/R132A)::GFP) (from UniProt Q93WI9 1-179)” showed a Days to flowering (days) of transgenic rice [1] of 58.8 days.

“Hd3a(R64G)-GFP (prolC::Hd3a(R64G)::GFP) (from UniProt Q93WI9 1-179)” was tested, and the Days to flowering (days) of transgenic rice [1] was 44.2 days.

B1: OsFD1 (Os09g0540800), full-length, yeast two-hybrid fusion (other)
chain: MAMEDDEDMWANTSSPSASPPRPRGFISTALSLNSTHLQGLLPSSFVDAAASPCHASGNNNGGGDGRNAAPMSSIFFASASYHQQQHHLPAPAPLDGAILPARRFGLDMCAAAAAAPAGVPAAGDRRKRRMIKNRESAARSRARKQARVNNLETEVEQLKQENKMLRVKYEQLRKTVEVPVPVRRTLQRVLSAPF
notes: not shown: two-hybrid fusion partner encoded by pBTM116-GW or pVP16-GW
B1: binds [2]; binds [3]; binds [4]. B1: binds [5]; binds [6]; binds [7]. B1: binds [8].

B2: OsFD1, full-length, Vn- or Vc-tagged (BiFC) (other)
chain: MAMEDDEDMWANTSSPSASPPRPRGFISTALSLNSTHLQGLLPSSFVDAAASPCHASGNNNGGGDGRNAAPMSSIFFASASYHQQQHHLPAPAPLDGAILPARRFGLDMCAAAAAAPAGVPAAGDRRKRRMIKNRESAARSRARKQARVNNLETEVEQLKQENKMLRVKYEQLRKTVEVPVPVRRTLQRVLSAPF
notes: it is put first only for listing; not shown: Vn or Vc fragment of Venus (BiFC tag), at the N- or C-terminal
B2: binds [9]; binds [10].

LQRVL[pS]APF (Soaked at 2 mM into Hd3a-GF14c crystals) [OsFD1 polypeptide, residues 187 to 195, chemically synthesized]: binds [11].

ARVNNLETEVEQLKQENKMLRVKYEQLRKTVEVPVPVRRTLQRVLEAPF (other): no binding [12].
